Laboratory results taken from US20250326812A1 (CUGENE, published 2025).
Values belong to the binder of their own block, whether it stands above or below them. Where no end group is shown, it is not given here.

Biological target: T1, P-0153, an IL-15/IL-15RαSushi+ Fc fusion protein
T1 construct: Heterodimeric knob/hole Fc fusion; It served as the plate-coated source of IL-15 in the peptide ELISA
Experiment: ELISA; P-0153 coated on the plate at 1 ug/well, biotinylated peptide in 3-fold dilutions from 100 uM, streptavidin-HRP, TMB, OD450
Description: The five peptides, L01 to L05 (SEQ ID NO: 97-101) in Table 13 were synthesized and assessed for their binding to IL-15 in ELISA format. […] Streptavidin-HRP complex at the manufacturer's recommended concentration was added and signal was developed by TMB substrate.

T1 sequence (chain, as listed by the source, chain 1 of 2): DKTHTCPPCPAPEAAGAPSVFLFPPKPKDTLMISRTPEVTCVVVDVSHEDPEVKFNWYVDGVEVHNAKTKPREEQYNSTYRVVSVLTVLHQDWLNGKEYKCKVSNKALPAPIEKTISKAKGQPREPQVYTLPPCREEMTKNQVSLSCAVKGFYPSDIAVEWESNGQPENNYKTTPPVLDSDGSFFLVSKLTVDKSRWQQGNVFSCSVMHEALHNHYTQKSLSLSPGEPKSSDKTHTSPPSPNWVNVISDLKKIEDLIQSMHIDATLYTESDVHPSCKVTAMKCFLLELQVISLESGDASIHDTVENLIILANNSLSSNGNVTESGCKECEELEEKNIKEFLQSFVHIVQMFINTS
T1 sequence (chain, as listed by the source, chain 2 of 2): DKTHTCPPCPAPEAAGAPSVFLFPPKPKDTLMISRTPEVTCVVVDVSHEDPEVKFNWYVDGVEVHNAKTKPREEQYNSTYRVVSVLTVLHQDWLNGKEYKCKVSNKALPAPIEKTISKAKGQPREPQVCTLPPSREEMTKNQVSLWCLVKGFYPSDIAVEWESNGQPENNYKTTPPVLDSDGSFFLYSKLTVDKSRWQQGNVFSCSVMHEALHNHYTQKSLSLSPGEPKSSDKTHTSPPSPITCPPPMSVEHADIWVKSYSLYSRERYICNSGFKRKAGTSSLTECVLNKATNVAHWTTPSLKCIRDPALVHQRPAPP

binding result: binds
B1: L02 (peptide)
peptide: EISQASHYFERHL
modifications: also: biotinylated, site not given here
notes: also called IL-2Rβ loop 2 peptide (linear)

binding result: binds
Binder: LGAPDSQKLTTVDIVGGGGGGGGEISQASHYFERHL (also: biotinylated, site not given here) [L04]

EC50 (read off the curve): ~8 µM
B2: Blocking peptide L03 (cyclized IL-2Rβ loop 2) (peptide)
peptide: CEISQASHYFERHLC
modifications: also: biotinylated, position not given here, cyclized, mode and sites not given here
notes: Synthetic peptide
